Test results from the nanobody polyreactivity screen of Harvey et al. (2022).

Assay: yeast display, Sf9 membrane polyspecificity reagent, FACS + sequencing; frameworks hold sequencing errors
How it was run: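 Genes from sorted yeast were amplified by colony PCR, read by MiSeq 2 × 250 sequencing and filtered on CDR length. These cells carried a synthetic nanobody library in Saccharomyces cerevisiae BJ5465 and were sorted by FACS into low and high (top ~1%) gates on anti-HA and streptavidin fluorescence. Polyreactivity is labelled according to the gate of origin.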

Sequence	polyreactivity (PSR sort gate)
QVQLVESGGGLVQAGGSLRLSCAASGSTFGYYAMGWYIQAPGKERELVAAISWPGGSTYYADSVKGRFTISRDNAKNTVYLQMNSLKPEYTAVYYCAADTPYWQSSKYDYWGQGTQVSVSS	high polyreactivity
QVQLVESGGGLVQAGGSLRLSCAASGSTFGYYAMGWYRQAPGKERELVAAIRWSGSTYYADSVKGRFTISRDNAKNTVYLQMNSLKPEDTAVYYCAADFVKRQANRQFDYWGQGTQVTVSS	high polyreactivity
QVQLVESGGGLVQAGGSLRLSCAASGSTFGYYAMGWYRQAPGKERELVAAISLGGGSTYYADSVKGRFTISRDNAKNTVYLQMNSLKPEDTEVYYCAARPYVRVKWKFNYWGQGTQVTVSS	low polyreactivity
QVQLVESGGGLVQAGGSLRLSCAASGSTFGYYAMGWYRQAPGKERELVAAISRGDSTNYADSVKGRFTISRDNAKNTVYLQMNSLKPEDTAVYYCAADQLNVCREYVEYDYWGQGTQVTVAS	low polyreactivity
QVQLVESGGGLVQAGGSLRLSCAASGSTFGYYAMGWYRQAPGKERELVAAISSGGSTNYADSVKGRFTISRDNAKNTVYLQMNSLKPEDTAVYYCNVGYIFVSFRYDYWGQGTQVTVSS	low polyreactivity
QVQLVESGGGLVQAGGSLRLSCAASGSTFGYYAMGWYRQAPGKERELVAAITWSGGSTSYADSVKGRFTISRENAKNSVYLQMNSLKPEDTAVYYCAAQYKKGRGAKRTYYGGWLEYCGQGTQVTVSS	low polyreactivity
QVQLVESGGGLVQAGGSLRLSCAASGSTFGYYAMGWYRQAPGKERELVAVIRRGGSTNYADSVKGRFTISRENAKNTVYLQMHSLKPEDTAVYYCAKSQRGTVYSYYYWGQGSQVTVSS	high polyreactivity
QVQLVESGGGLVQAGGSLRLSCAASGSTFGYYAMGWYRQAPRKERELVAVITRGGSTYYADSVKGRFTISRDNAKNTVYVQMNSLKPEDTAVYYCNARVQAVHYGYWGQGTEVTVSS	high polyreactivity
QVQLVESGGGLVQAGGSLRLSCAASGSTFGYYAMGWYRQAPVKERELVAAISAGDRTYYADSVKGRFTISRDNATNTLYLQMNSLKPEDTAVYYSAARPLRSRNGYYWGQGTQGTVSS	high polyreactivity
QVQLVESGGGLVQAGGSLRLSCAASGSTFGYYGMGRYRQAPGKERELVASIDSRGDSTYADSVKGRFTISRDNAKNTVYLQMNSLKPEDTSVYYCADDSWYTWFDSWGQGTQVTVSS	low polyreactivity
QVQLVESGGGLVQAGGSLRLSCAASGSTFGYYSMGWYRQAPGKERELVAAIRYSGGTTYYADSVKGRYTISRDNAKNTVYLQMNSLKPEDTAVYYCAAVYTSGYYYWGQGTQVTVSS	high polyreactivity
QVQLVESGGGLVQAGGSLRLSCAASGSTFGYYTMGWYRQAPGKERELVAAITWLGGRTYYADSVKGRFTISRDNAKNTVYLQMNSLKPEDTAVYYCAARSTVLMDYWGQGTQVTVSS	high polyreactivity
QVQLVESGGGLVQAGGSLRLSCAASGSTFGYYTMGWYRQAPGKERELVASIDVSGDSTSYADSVKGRLTISRDNAKNTVYLQMNSLKPEDTAVYYCNTGRYPTSPTHNYWGQGTQVTVSS	low polyreactivity
QVQLVESGGGLVQAGGSLRLSCAASGSTFHFYAMGWYRQAPGKESELVAAITWSGGTTYYADSVKGRFTISRDNAKNTVYFQMNSLKPEDTGVYYCATGQSVIYRYEYWGQGTQVTVSS	low polyreactivity
QVQLVESGGGLVQAGGSLRLSCAASGSTFHGNAMGWYRQAPGKERELVAAISRSGGSTYYADSVKGRFTISRDNEKNTVYLQMNSLKPEDNAVYYCAADRPYYPLKYDYWGQGTQVTVSS	high polyreactivity
QVQLVESGGGLVQAGGSLRLSCAASGSTFHGYDMGWYRQAPGKERELVAAITSSGDDTYYADSVKGRFTISRDNAKNTVYLQMNSLKPEDTAVYYCAAEYTEGYTHDYWGQGTQVNVSS	low polyreactivity

Sequence	polyreactivity (PSR sort gate)
QVQLVESGGGLVQAGGSLRLSCAASGSTFHIYAMGWYRQAPGKERELVAGITRGSTYYADSVKGRFTISRDNAKNTVYLQMNSLKPEDTAVYYCAADVYGFRYSESDYWGQGTQVTVSS	low polyreactivity
QVQLVESGGGLVQAGGSLRLSCAASGSTFHPNAMGWYRQAPGKERELVAISSGDDTYYADSVKGRFTISRDIAKNTVYLQMKSLKPEDTAVYYCAAEYSFIYYWGQGTQVTVSS	low polyreactivity
QVQLVESGGGLVQAGGSLRLSCAASGSTFHPNGMGWYRQAPGKERELVAAIRRSGGSTYYADSVKGRFTISRDNAKNTVYLQMNSLKPEDTAVYYCAAKHYYYSPYVRYDPPPGYYWGQGTQVTVSS	high polyreactivity
QVQLVESGGGLVQAGGSLRLSCAASGSTFHQNTMGWYRQAPVKEREMVAAISWTGGGTYYADSVKGRYTISRDNAKNTVYLQMNSLKPEDTAVYYCAADYSDFWGFRYYYWGQGTQVNVSS	low polyreactivity
QVQLVESGGGLVQAGGSLRLSCAASGSTFHRNAMGWYRQAPGKERELVAAITSGGSTNYADSVKGRFTISRDNAKNTVYLQMNSLKPEDTAVYYCAKDYRHYNRGWYDYWGQGTQVTVSS	low polyreactivity
QVQLVESGGGLVQAGGSLRLSCAASGSTFHRNTMGWYRQAPGKERELVAGISLRGVRTYYADSVKGRFTISRDNAKNTVYLQMNSLKPEDTAVYYCAAGGPYTRNFKLGYWGQGTQVTVSS	high polyreactivity
QVQLVESGGGLVQAGGSLRLSCAASGSTFHSNAMGGYRQAPGKERELVAAISSGGSTNYADSVKGRFTISRDNAKNTVYLQMNSLKPEDTAVYYCAAVWRYLGYTAMDYWGQGTQVTVSS	low polyreactivity
QVQLVESGGGLVQAGGSLRLSCAASGSTFHSYVMGWYRQAHGKERELVAAITSRGGSTNYADSVKGRFTISRDNAKNTVYLQMNSLKPEDTAVYYCAADGYWGWSYFRYDYWGQGTLVTVSS	low polyreactivity
QVQLVESGGGLVQAGGSLRLSCAASGSTFHTYDMGWYRQAPGKERELVAAITSGGDTNYADSVKGRFTISRDNAKNTVYLQMNSLKPEDTAVYYCNTDRWGTGKLRYNYWGQGTQVTVSS	low polyreactivity
QVQLVESGGGLVQAGGSLRLSCAASGSTFHTYGLGWYRQAPGKERELVAAIDLSDGSTYYADSVKGRFTISRDNAKNTVYLQMNSLKPADTAVYYCKADYFPKPYRPDDYWGQGTQVTVSS	low polyreactivity
QVQLVESGGGLVQAGGSLRLSCAASGSTFHWYDMGWYRQAPGKERELVAGINSSGDGTYYADSVKGRFTISRDNAKYTVYLQMNSLKPEDTAVYYCAAPWWYYGVPYQTNKYDYWGQGTQVTVSS	low polyreactivity
QVQLVESGGGLVQAGGSLRLSCAASGSTFHYYAMGWYRQAPGKERELVAAISQSGSGTYYADSVKGRFTISRDNAKNTVYLQMNSLKPEDTAVYYCAKESTKIYRVVEMDYWGQGTQVTVSS	low polyreactivity
QVQLVESGGGLVQAGGSLRLSCAASGSTFHYYVMRWYRQAPGKERELVAAIRRSGGTTYYADSVKGRFTISRDNAKNTVYLQMNSLKPEDTAVYYCAAPGWYGGYPSYYYWGQGTQVSVSS	low polyreactivity
QVQLVESGGGLVQAGGSLRLSCAASGSTFIAYTMGWYRQAPGKERELVAAITWSGGGTYYADSVKGRFTISRDNAKNTVYLQMNSLKPEDTAVYYCAKRGWRGYYWGQGTQVTVSS	high polyreactivity
QVQLVESGGGLVQAGGSLRLSCAASGSTFIFYVMVWYRQAPGKERELVASITGNGTSTYYADSVKGRFTISRDNAKNTVYLQMNSLKPEDSAVYYCNAVFSPSRYDYWGQGTQVTVSS	low polyreactivity
QVQLVESGGGLVQAGGSLRLSCAASGSTFIGNAMGRYRQAPGKERELVAAITRSGGSTFYADSVKGRFTISRDYAKNTVYLQMNSLKPEDTAVYYCAARTRRGLARYDYWGQGTQVTVSS	high polyreactivity
